In the assay the target is other cell components, including other HLA class I alleles, of the B-LCL lines.

In the case of “FL-labeled HLA-A*0301 reference peptide KVFPC(FL)ALINK”, the relative peptide-binding percentage was less than 20%.
